Measured values as given in the MegaScale stability set (Tsuboyama et al. 2023).

B1: 6YSE (parent)
chain: HERALMVNRLQKLTRMLRVHPDPKWKQEQQELIKRLK
B2: r4_43_TrROS_Hall (parent)
chain: DLVTIKVPLENLEEIKKAAEKAGFKIVSISYDKENKEVTIVIEKKK

Variants of: B1
Assay: folding stability dG (cDNA display proteolysis); higher = more stable
Settings: PBS, room temperature

Folding stability dG [kcal/mol], by site and new letter:
I33: L 1.17; M 0.592; N 0.375; Q -0.155; R 0.898; S -0.232; T 0.17; V 0.738; W 0.93; Y 0.751
K34: A 1.37; C 1.59; D 0.366; E 1.14; F 1.2; G 0.802; H 1.11; I 1.31; L 1.15; M 1.34; N 1; Q 1.25; R 1.51; S 1.07; T 1.27; V 1.03; W 0.902; Y 1.02
R35: A 1.24; D -0.514; E 0.729; F 1.18; G -0.14; H 0.82; I 1.58; K 1.51; L 1.73; M 0.84; N 0.739; Q 1.19; S 0.493; T 0.734; V 1.14; W 1.42; Y 1.16
L36: F 0.524; I 0.873; M 0.478; R -0.888; W -0.411; Y -0.212
K37: D 0.831; E 1.05; F 1.68; G 1.27; H 1.19; I 1.08; L 1.42; M 1.7; N 1.24; Q 1.8; R 1.55; S 1.19; T 1.25; V 0.95; W 1.43; Y 1.74

Variants of: B2
Assay: as above
Settings: PBS, room temperature

Folding stability dG [kcal/mol]: each site, then its substitutions
D1: A 3.81; C 3.7; E 3.66; F 3.9; G 3.47; H 3.83; I 3.87; K 3.81; L 3.84; M 4.1; N 3.79; P 3.56; Q 3.82; R 3.42; S 3.84; T 3.83; V 4; W 4.07; Y 3.87
L2: A 3.4; C 3.41; D 3.35; E 3.45; F 3.76; G 3.42; H 3.43; I 3.13; K 3.52; M 3.66; N 3.23; P 3.23; Q 3.85; R 3.58; S 3.39; T 3.93; V 3.91; W 3.78; Y 4.08
V3: A 3.33; C 3.72; D 3.18; E 3.1; F 4.06; G 3.13; H 3.69; I 3.36; K 3.45; L 3.62; M 3.66; N 3.25; P 2.93; Q 3.65; R 3.4; S 3.62; T 3.66; W 4.34; Y 4.03
T4: A 3.92; C 3.44; D 2.98; E 3.5; F 3.68; G 3.14; H 3.64; I 3.54; K 3.56; L 3.46; M 3.65; N 3.45; P 3.02; Q 3.38; R 3.52; S 3.78; V 3.48; W 3.88; Y 4.13
I5: A 3.14; C 3.01; D 2.34; E 2.86; F 4.32; G 1.98; H 3.23; K 3.27; L 4.01; M 3.79; N 2.61; P 1.48; Q 3.15; R 3.1; S 2.9; T 3.42; V 3.79; W 4.23; Y 4.42
K6: A 3.51; C 3.32; D 2.82; E 2.83; F 3.62
